From patent US20190033318A1 (UNIVERSITY OF SOUTHAMPTON, published 2019) come the findings set out here.

Assay [1] addresses T1, HIF-2α (construct not given) (UniProt Q99814 1-360, limits assumed).
T1 construct: also called HIF-2 ELISA
The assay is described as follows: HIF-2 ELISA, inhibition of HIF-2α/HIF-1β dimerisation.

Assay [2] concerns the target T2, 2α PASB (HIF-2α PASB domain, 240-350) (UniProt Q99814 240-350, labelled with NT-647-NHS dye in MST; 15N (and 13C 15N) labelled in NMR).
T2 construct: range 240-350; also called PAS B domain of HIF-2α; not shown: His6 tag of vector pET28, then Met
Description: fluorescence polarisation, 2α PASB titrated into 2 µM fluor-CRVIIF. As for the experimental part:
Kd values were determined by fluorescence polarisation (FP) using fluorescently labelled cyclo-CRVIIF (fluor-CRVIIF) (SEQ ID NO 4) dissolved in DMSO as the probe. In each condition, the concentration of the probe was kept constant (2 μM, 1% DMSO) whilst proteins were titrated. Reactions were performed in HIF assay buffer with the addition of 0.1% Triton X-100. Samples were assembled in black 96-well plates (40 μL/well, in triplicate) and allowed to equilibrate for 2 hr in the dark. Plates were read using a POLARstar Omega plate reader (BMG Labtech) at Ex: 490 nm, Em: 520 nm, with target gain set to 300 mP. Polarisation data were plotted and Kd values calculated by non-linear regression using GraphPad Prism 6.

T1 sequence (Q99814 1-360 limits assumed): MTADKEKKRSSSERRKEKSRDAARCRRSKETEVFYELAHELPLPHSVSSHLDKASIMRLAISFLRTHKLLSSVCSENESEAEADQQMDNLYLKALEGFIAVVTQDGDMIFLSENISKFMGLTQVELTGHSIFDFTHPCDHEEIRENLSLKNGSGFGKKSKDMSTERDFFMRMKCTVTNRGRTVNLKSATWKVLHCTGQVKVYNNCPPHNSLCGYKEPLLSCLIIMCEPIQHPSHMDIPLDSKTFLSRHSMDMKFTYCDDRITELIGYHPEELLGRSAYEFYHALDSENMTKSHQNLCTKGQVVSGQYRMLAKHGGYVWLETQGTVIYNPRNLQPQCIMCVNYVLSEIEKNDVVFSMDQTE
T2 sequence (Q99814 240-350): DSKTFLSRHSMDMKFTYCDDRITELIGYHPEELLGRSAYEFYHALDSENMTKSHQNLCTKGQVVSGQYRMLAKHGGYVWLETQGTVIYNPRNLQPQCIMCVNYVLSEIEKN

cyclo(C(FITC‑maleimide)RVIIF) (not fully specified; printed as fluor-CRVIIF, also called FITC-CRVIIF) [fluorescently labelled cyclo-CRVIIF (fluor-CRVIIF) (SEQ ID NO 4)]: the “Activity as measured by a HIF-2 ELISA” value in assay [1] turned out to be 1.46 µM. The same molecule came in with a dissociation constant (Kd) in assay [2] of 18.5 µM.
